Measurements taken from IntAct's records for PubMed 29039417.

B1: BBSome complex member BBS2 (Homo sapiens), Q9BXC9 (parent)
chain: MLLPVFTLKLRHKISPRMVAIGRYDGTHPCLAAATQTGKVFIHNPHTRNQHVSASRVFQSPLESDVSLLSINQAVSCLTAGVLNPELGYDALLVGTQTNLLAYDVYNNSDLFYREVADGANAIVLGTLGDISSPLAIIGGNCALQGFNHEGSDLFWTVTGDNVNSLALCDFDGDGKKELLVGSEDFDIRVFKEDEIVAEMTETEIVTSLCPMYGSRFGYALSNGTVGVYDKTSRYWRIKSKNHAMSIHAFDLNSDGVNELITGWSNGKVDARSDRTGEVIFKDNFSSAIAGVVEGDYRMDGHIQLICCSVDGEIRGYLPGTAEMRGNLMDTSAEQDLIRELSQKKQNLLLELRNYEENAKAELASPLNEADGHRGIIPANTRLHTTLSVSLGNETQTAHTELRISTSNDTIIRAVLIFAEGIFTGESHVVHPSIHNLSSSICIPIVPPKDVPVDLHLKAFVGYRSSTQFHVFESTRQLPRFSMYALTSLDPASEPISYVNFTIAERAQRVVVWLGQNFLLPEDTHIQNAPFQVCFTSLRNGGHLHIKIKLSGEITINTDDIDLAGDIIQSMASFFAIEDLQVEADFPVYFEELRKVLVKVDEYHSVHQKLSADMADHSNLIRSLLVGAEDARLMRDMKTMKSRYMELYDLNRDLLNGYKIRCNNHTELLGNLKAVNQAIQRAGRLRVGKPKNQVITACRDAIRSNNINTLFKIMRVGTASS
partner: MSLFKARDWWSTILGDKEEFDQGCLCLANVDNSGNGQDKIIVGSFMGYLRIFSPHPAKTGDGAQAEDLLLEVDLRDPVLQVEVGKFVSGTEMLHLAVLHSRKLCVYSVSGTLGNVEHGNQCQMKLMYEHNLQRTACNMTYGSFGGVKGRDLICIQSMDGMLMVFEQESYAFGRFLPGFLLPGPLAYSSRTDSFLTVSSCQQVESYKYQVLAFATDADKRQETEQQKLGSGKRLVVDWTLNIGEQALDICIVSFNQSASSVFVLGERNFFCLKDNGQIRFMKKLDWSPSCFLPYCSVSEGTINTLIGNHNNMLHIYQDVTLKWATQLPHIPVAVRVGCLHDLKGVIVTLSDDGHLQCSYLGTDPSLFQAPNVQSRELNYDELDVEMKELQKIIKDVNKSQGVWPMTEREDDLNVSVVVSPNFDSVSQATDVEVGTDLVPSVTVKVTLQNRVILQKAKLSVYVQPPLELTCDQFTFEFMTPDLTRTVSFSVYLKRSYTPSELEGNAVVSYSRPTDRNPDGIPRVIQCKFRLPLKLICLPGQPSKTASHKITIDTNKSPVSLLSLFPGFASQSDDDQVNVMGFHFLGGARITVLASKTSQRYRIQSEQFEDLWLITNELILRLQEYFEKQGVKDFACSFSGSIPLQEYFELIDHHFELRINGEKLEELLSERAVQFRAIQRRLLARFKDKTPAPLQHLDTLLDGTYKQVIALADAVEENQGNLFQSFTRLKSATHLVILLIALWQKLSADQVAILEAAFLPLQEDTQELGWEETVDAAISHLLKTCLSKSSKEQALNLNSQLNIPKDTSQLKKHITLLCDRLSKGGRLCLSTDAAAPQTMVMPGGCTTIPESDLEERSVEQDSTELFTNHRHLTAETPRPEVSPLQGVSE

Variants of: B1
Settings: with pthb1_human BBS9, Q3SYG4

Variant	effect of a mutation on the interaction
R339A	with no effect
E340K	with no effect
L341K	with no effect
Q343K	with no effect
K344E	with no effect
Q346E	with no effect
Q346K	with no effect
N347A	with no effect
N347E	with no effect
N347K	with no effect
L348A	with no effect
L348K	with no effect
L349A	with no effect
L349K	with no effect
L350A	with no effect
L350E	with no effect
L350K	with no effect
E351K	with no effect
L352A	with no effect

Variant	effect of a mutation on the interaction
L352E	with no effect
L352K	with no effect
R353E	with no effect
N354A	with no effect
N354E	with no effect
E356A	with no effect
E357K	with no effect
K360A	with no effect
A361K	with no effect
L363K	with no effect
S365C	disrupting interaction strength
P366A	with no effect
P366E	with no effect
P366K	with no effect
L367K	with no effect
N368A	with no effect
N368E	with no effect
N368K	with no effect

Other lines, results leading:

effect of a mutation on the interaction	Variant
with no effect	L337A
with no effect	L337E
with no effect	L337K
with no effect	I338A
with no effect	I338E
with no effect	I338K
with no effect	R339E
with no effect	R339K
with no effect	E340A
with no effect	L341A
with no effect	L341E
with no effect	S342A
with no effect	S342E
with no effect	S342K
with no effect	Q343A
with no effect	Q343E
with no effect	K344A
with no effect	K345A
with no effect	K345E
with no effect	Q346A
with no effect	L348E
with no effect	L349E
with no effect	E351A
with no effect	R353A
with no effect	R353K
with no effect	N354K
with no effect	Y355A
with no effect	Y355E

effect of a mutation on the interaction	Variant
with no effect	Y355K
with no effect	E356K
disrupting interaction strength	E356L
disrupting interaction strength	E356P
disrupting interaction strength	E356S
with no effect	E357A
with no effect	N358A
with no effect	N358E
with no effect	N358K
with no effect	A359E
with no effect	A359K
with no effect	K360E
with no effect	A361E
with no effect	E362A
with no effect	E362K
disrupting interaction strength	E362Y
with no effect	L363A
with no effect	L363E
with no effect	A364E
with no effect	A364K
with no effect	S365A
with no effect	S365E
with no effect	S365K
with no effect	L367A
with no effect	L367E
with no effect	E369A
with no effect	E369K
